Results on one substance are retold here after PMC4815982.

For the test, the target named is AROS (UniProt Q86WX3). The experiment in a line: Flag-SIRT1 IP, HA-AROS immunoblot. The conditions noted are these: reference: wild type, Adriamycin-treated; sites S682. (In general: A western blot detects proteins with antibodies after separation by electrophoresis.)

In the case of “SIRT1 (from UniProt Q96EB6) S682A, Adriamycin-treated”, the “binding against the reference” value was “stronger”.
